Laboratory results from patent US20220153853A1 (JIANGSU HENGRUI MEDICINE, published 2022).
Where a chain is given by its changes, count along the chain named.

B1: hu1803-1 (antibody, human IgG4 S228P, kappa, F234A L235A, V domains shown)
VH: EVQLVQSGAEVKKPGASVKVSCKASGYTFTDYWIEWVRQAPGQGLEWMGEILPGSTYTNYNEKFKGRVTMTRDTSTSTVYMELSSLRSEDTAVYYCARGLSTLMAVDYFDYWGQGTTVTVSS
VL: DIQMTQSPSSLSASVGDRVTITCRASQDISNYLNWYQQKPGKAPKLLIYYSSTLHSGVPSRFSGSGSGTDFTLTISSLQPEDFATYYCQQTNIFPWTFGGGTKVEIKR
B2: hu1810-4 (antibody, human IgG4 S228P, kappa, F234A L235A, V domains shown)
VH: QVQLVQSGAEVKKPGSSVKVSCKASGGTFSNYAISWVKQAPGQGLEWIGEIYPTSGNTYYNEKFKGKATLTADRSTSTMYMELSSLRSEDTAVYYCASGVITTVVSTDYFDYWGQGTLVTVSS
VL: B1 VL with Q27L, S51T, T91G, I93M, F94V, W96Y
B3: hu1810-1 (antibody, human IgG4 S228P, kappa, F234A L235A, V domains shown)
VH: B2 VH with K38R, I48M, K67R, A68V, L70I, R74K, M79A, S98R
VL: B1 VL with Q27L, S51T, T91G, I93M, F94V, W96Y
B4: hu1810-2 (antibody, human IgG4 S228P, kappa, F234A L235A, V domains shown)
VH: B2 VH with K38R, I48M, K67R, A68V, L70I
VL: B1 VL with Q27L, S51T, T91G, I93M, F94V, W96Y
B5: hu1803-2 (antibody, human IgG4 S228P, kappa, F234A L235A, V domains shown)
VH: B1 VH with M70F, R72A, V79A
VL: B1 VL
B6: hu1803-7 (antibody, human IgG4 S228P, kappa, F234A L235A, V domains shown)
VH: B1 VH with M48I, V68A, M70F, R72A, V79A, A97S
VL: B1 VL with K42G, P44V, F71Y, Y87F
B7: hu1803-11 (antibody, human IgG4 S228P, kappa, F234A L235A, V domains shown)
VH: B1 VH with M48I, V68A, M70F, R72A, V79A, A97S
VL: B1 VL with P44V, F71Y
B8: hu1810-7 (antibody, human IgG4 S228P, kappa, F234A L235A, V domains shown)
VH: B2 VH with K38R, K67R
VL: B1 VL with Q27L, P44V, S51T, P59S, F71Y, T91G, I93M, F94V, W96Y
B9: hu1803-3 (antibody, human IgG4 S228P, kappa, F234A L235A, V domains shown)
VH: B1 VH with M48I, V68A, M70F, R72A, V79A, A97S
VL: B1 VL
B10: hu1803-4 (antibody, human IgG4 S228P, kappa, F234A L235A, V domains shown)
VH: B1 VH with R38K, M48I, V68A, M70F, R72A, T74P, V79A, A97S
VL: B1 VL
B11: hu1803-6 (antibody, human IgG4 S228P, kappa, F234A L235A, V domains shown)
VH: B1 VH with M70F, R72A, V79A
VL: B1 VL with K42G, P44V, F71Y, Y87F
B12: hu1803-8 (antibody, human IgG4 S228P, kappa, F234A L235A, V domains shown)
VH: B1 VH with R38K, M48I, V68A, M70F, R72A, T74P, V79A, A97S
VL: B1 VL with K42G, P44V, F71Y, Y87F
B13: hu1803-10 (antibody, human IgG4 S228P, kappa, F234A L235A, V domains shown)
VH: B1 VH with M70F, R72A, V79A
VL: B1 VL with P44V, F71Y
B14: hu1810-3 (antibody, human IgG4 S228P, kappa, F234A L235A, V domains shown)
VH: B2 VH with K38R, K67R
VL: B1 VL with Q27L, S51T, T91G, I93M, F94V, W96Y
B15: hu1803-5 (antibody, human IgG4 S228P, kappa, F234A L235A, V domains shown)
VH: B1 VH
VL: B1 VL with K42G, P44V, F71Y, Y87F
B16: hu1810-5 (antibody, human IgG4 S228P, kappa, F234A L235A, V domains shown)
VH: B2 VH with K38R, I48M, K67R, A68V, L70I, R74K, M79A, S98R
VL: B1 VL with Q27L, P44V, S51T, P59S, F71Y, T91G, I93M, F94V, W96Y
B17: hu1810-6 (antibody, human IgG4 S228P, kappa, F234A L235A, V domains shown)
VH: B2 VH with K38R, I48M, K67R, A68V, L70I
VL: B1 VL with Q27L, P44V, S51T, P59S, F71Y, T91G, I93M, F94V, W96Y
B18: hu1803-12 (antibody, human IgG4 S228P, kappa, F234A L235A, V domains shown)
VH: B1 VH with R38K, M48I, V68A, M70F, R72A, T74P, V79A, A97S
VL: B1 VL with P44V, F71Y
B19: hu1810-8 (antibody, human IgG4 S228P, kappa, F234A L235A, V domains shown)
VH: B2 VH
VL: B1 VL with Q27L, P44V, S51T, P59S, F71Y, T91G, I93M, F94V, W96Y
B20: hu1810-9 (antibody, human IgG4 S228P, kappa, F234A L235A, V domains shown)
VH: B2 VH with K38R, I48M, K67R, A68V, L70I, R74K, M79A, S98R
VL: DIQMTQSPSSLSASVGDRVTITCRASLDISNYLNWYQLKPGKAVKLLIYYTSTLHSGVSSRFSGSGSGTEYTLTISSLQPEDFATYYCQQGNMVPYTFGGGTKVEIKR
B21: hu1810-11 (antibody, human IgG4 S228P, kappa, F234A L235A, V domains shown)
VH: B2 VH with K38R, K67R
VL: B20 VL
B22: hu1810-10 (antibody, human IgG4 S228P, kappa, F234A L235A, V domains shown)
VH: B2 VH with K38R, I48M, K67R, A68V, L70I
VL: B20 VL

Each binder was assayed against human GCGR (full-length glucagon receptor of 477 amino acids) (human, UniProt P47871 26-477) (assay: cell-based or functional assay).
human GCGR (full-length glucagon receptor of 477 amino acids), sequence (P47871 26-477 limits assumed): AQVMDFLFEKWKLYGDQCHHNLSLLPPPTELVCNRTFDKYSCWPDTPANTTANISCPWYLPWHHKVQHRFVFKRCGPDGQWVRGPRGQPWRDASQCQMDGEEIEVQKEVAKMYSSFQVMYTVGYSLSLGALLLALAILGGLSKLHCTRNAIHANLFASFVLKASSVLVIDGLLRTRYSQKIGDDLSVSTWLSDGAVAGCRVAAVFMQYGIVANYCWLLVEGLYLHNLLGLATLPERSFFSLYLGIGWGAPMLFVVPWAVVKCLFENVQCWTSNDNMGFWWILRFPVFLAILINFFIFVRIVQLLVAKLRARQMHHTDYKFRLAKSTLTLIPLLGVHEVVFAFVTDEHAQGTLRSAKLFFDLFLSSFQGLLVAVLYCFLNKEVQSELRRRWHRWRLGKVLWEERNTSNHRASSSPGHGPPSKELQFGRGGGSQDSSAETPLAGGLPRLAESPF

IC50	Imax	Binder
191 nM	91.8%	B1
138 nM	99.1%	B2
189 nM	83.2%	B3
106 nM	100%	B4
137 nM	98.5%	B5
73 nM	100%	B6
88.7 nM	100%	B7
119 nM	100%	B8
110 nM	96.7%	B9
140 nM	100%	B10
77.5 nM	100%	B11
85.9 nM	100%	B12
76.7 nM	100%	B13
192 nM	95.4%	B14
79 nM	100%	B15
216 nM	86.4%	B16
157 nM	100%	B17
86.9 nM	100%	B18
133 nM	100%	B19
125 nM	90.4%	B20
91.3 nM	99.6%	B21
95.6 nM	97.4%	B22
